The values below come from PMC8483785, “The plant nuclear lamina proteins NMCP1 and NMCP2 form a filamentous network with lateral filament associations” (Journal of Experimental Botany, 2021).

Data set [1] addresses His-tagged DcNMCP1 (Daucus carota nuclear matrix constituent protein 1 with an N-terminal 6x His tag) (Daucus carota). The data set is described as follows: transmission electron microscopy after low-angle rotary metal shadowing; purified protein in urea dialysed against H2O (30-120 min) to induce refolding; sprayed in 40% glycerol on mica, platinum-carbon shadowing; monomers to coiled-coil dimer.

Data set [2] deals with the molecule itself. Described as above.

One may read the stoichiometry N as a count of units in the complex or per binding partner. “His-tagged DcNMCP1 (Daucus carota nuclear matrix constituent protein 1 with an N-terminal 6x His tag) (from UniProt A0A166B1A6 1-1119) (natural protein)” yielded a stoichiometry N in data set [1] of 2.

B1: His-tagged DcNMCP2 (Daucus carota nuclear matrix constituent protein 2 with an N-terminal 6x His tag) (natural protein, UniProt D2YZU8 1-927, looked up)
chain: MASPRLTVIQSEKTTVTSSRVSRSSMSDDDIWKRLQEAGFDEDSIKRRDKASLIAYITKLEAEIYDHQYQMGLLIMERKEWGSKFERVEAALNSAELMRKHDKNLYLKDLAEAKKREENLKKAIEIERECLANIEKTLHELRAEYAETKVMADSKLVEARSMIEDALKKLSEADAKKHAAESLEAEASRYHSAAERKLHEVEAREDDLRRRATSFKTECDTKEEEILHERRLLNERQKALQQSQQRLVDGQDLLNKRESHIFERTQELNRKEKELEASKLKQEEELQALVEQQANLETKASSLSLREEVITKSELEVKKREEELCVLQEKLEKKESERIQQLLANYEASLSMKKSEFEAELEVKRKSVHDDIENKRRDWELREVDLHHREELILEKEHELEMQSRAVVDKERDLAGRFSLLEEKENRLHAVEKEIESKEALLQKEKEEIISSKLDIQRSLDALEDEKKQLHHAEEKMEAMKSETNELCVLESKLKEEIETIRAQKQELETEADEMKELKLKFEIEWQSIDEKRKELQKEAECINEQRESLELTLKDERNSLKLEKDAMRDEYMRNNESLSRDREDFMKKMEHERSEWFSKIQKERSDYLLAIEVQSKDLEDRLAKRREEIESYLAERERAFEEEKKKELMRMDTLRETLARETEQVNAELNRLDTERREINLDRERRDREWAELNTLIEELKVQRQKLEKQRELMRADKEEILVQIEHLKQLEDLKVVPDRIALTDIQQSDLQPSKRVSARRSLKRQSGLDSGCRAEDNGNASSGNGSVILSPPLSSPFSWLKRCASSLLEQKVSNKKMRHSEEIITPSTIPARLNAPDDEHAVISANQQTPVHAKETTVYIDKIITIREVTSFNDAIVDGNNQNLEEALSQRAEEKLEDDNNIESEKLEKNGEVDPKIMQASLTEQ
notes: Nuclear matrix constituent protein 2 (NMCP2) of Daucus carota; longest ORF of cDNA clone pD2m, amplified from the start codon to the stop codon; the PCR product included a 2808 bp ORF; GenBank AB514509; also called 6x His-tagged DcNMCP2; product of pDC2mN; not shown: His6, N-terminal, kept
As for B1, the “stoichiometry N” value in data set [2] stood at 2.
